# Earlier results in article PMC9601870.
# Target: Cys32 (UniProt position 33, FWAEWCGPCKM)
# Conditions: not stated (thiol ionisation implies the reduced dithiol form; inferred)
substance,measurement,value
Thioredoxin 1 (Trx) (Escherichia coli),pKa,7.1–7.4
